From PMC3064264 (The Journal of neuroscience : the official journal of the …, 2010)

Molecular target: the molecule itself
Test: non-reducing SDS-PAGE and Western blot

B1: kinesin-12 (rat) (natural protein, UniProt Q7TSP2 1-1385, looked up)
chain: MAPGCKSELRNVTNSHSNQPSNEDDAIKVFVRIRPAEEGARSADGEQSLCLSVLSQTALRLHSNPDPKTFVFDYVAGMDTTQESVFSTVAKSIVESCMSGYNGTIFAYGQTGSGKTFTMMGPSDSDNFSHNLRGVIPRSFEYLFSLIDREKEKAGAGKSFLCKCSFIEVYNEQIYDLLDSASVGLYLREHIKKGVFVVGAVEQVVASAAEAYQVLSRGWRNRRVASTSMNRESSRSHAVFTITIESMEKSSEAVNIRTSLLNLVDLAGSERQKDTHAEGMRLKEAGNINRSLSCLGQVITALVDVGNGKQRHVCYRDSKLTFLLRDSLGGNAKTAIIANVHPGSRCFGETLSTLNFAQRAKLIKNKAVVNEDTQGNVSQLQAEVKRLREQLSQFTSGQLTPGSSLARDKEKANYMEYFLEAMLFFKKSEQEKKSLVEKITQLEDLTLKKEKFIQSNKMIVKFREDQIMRLERLQKEARGSFLPEEQDRLLSELRDEIRTLREQVEHHPRLAKYAMENHSLREENRKLKLLAPVKRAHELDAQAIARLEQAFSEVSSTETNDKGLQGLPPKAIKEPSFFTSTEKLKVQLLQIQTELNNSKQEYEEFKELTRKKQLELESELQSLQKANLNLENLLEATKVCKRQEVSQLNKIHAETLKIITTPTKAYQLCSRLVPKSSPEVGSFGFLRSQSAPDNDILNEPVPPEMSEQALEAISEELRTVQEQLSVLQVKLDEEEHKNLKLQQNVDRLEHHSTQMQELFSSERSDWSKQQQDYLTQLSDLEKQLQDAQTKNDFLKCEVHDLRIVLNSADKELSLVKLEYSTFKESQEKELSQLSERHVQVQLQLDNARLENEKLLESQACLQDSYDNLQEVMKFEVDQLSKNLQNCKQENETLKSDLHNLVELFEAEKERNNKLSLQFEEDKENSSKEILKALETVRQEKQEEMARCEKQMAKVQELEESLLAAENVVSCLEKSRESDKELVTNLMNQIQELRTSAGEKSEAIDTLKQELQDISCKYTAAVADKEESKELIRRQEVDILELKETLRLRILSEDIERDMLCEDLAHATEQLNMLTEASKKHSGLLQSAQEELTKKEALIQELQHKLNQEKEEVEQKKSEYNLKMKQLEHVMGSAPEYPQSPKTPPHFQTHLAKLLETQEQEIEDGRASKMSLQHLVTKLNEDREVKNAEILRMKDQLCEMENLRLESQQLRERTWLLQTQLDDMKRQGESSSQSRPDSQQLKNEYEEEIIRERLAKNKLIEEMLKMKTDLEEVQSALDSKEKFCHRMSEEVERTRTLESRAFQEKEQLRSKLEEMYEERERTCQEMEMLRKQLEFLAEENGKLIGHQNLHQKIQYVVRLKKENIRLAEETEKLRAENVFLKERKKE
  stoichiometry N: 2
